In the Human Domainome abundance scans (Beltran et al. 2025):
± gives the uncertainty stated by the source.

B1: Lysine-specific demethylase 2B, residues 656 to 722; numbered along this chain, Q8NHM5 (parent)
chain: LPHTAVCLVCGEAGKEDTVEEEEGKFNLMLMECSICNEIIHPGCLKIKESEGVVNDELPNCWECPKC

Variants of: B1
Test: abundance fitness (aPCA) (normalised: wild type 0, dead -1); higher = more abundant; growth selection in yeast, the domain comes from the species named
Conditions: Homo sapiens

Variant | abundance fitness
LPHTAVCLVCGEAGKEDTVEEEEGKFNLMLMECSICNEIIHPGCLRIKESEGVVNDELPNCWECPKC | 0.016 ± 0.064
LPHTAVCLVCGEAGKEDTVEEEEGKFNLMLMECSICNEIIHPGCLIIKESEGVVNDELPNCWECPKC | -0.311 ± 0.15
LPHTAVCLVCGEAGKEDTVEEEEGKFNLMLMECSICNEIIHPGCLEIKESEGVVNDELPNCWECPKC | 0.206 ± 0.14
LPHTAVCLVCGEAGKEDTVEEEEGKFNLMLMECSICNEIIHPGCLHIKESEGVVNDELPNCWECPKC | -0.532 ± 0.28
LPHTAVCLVCGEAGKEDTVEEEEGKFNLMLMECSICNEIIHPGCLWIKESEGVVNDELPNCWECPKC | -0.148 ± 0.098
LPHTAVCLVCGEAGKEDTVEEEEGKFNLMLMECSICNEIIHPGCLAIKESEGVVNDELPNCWECPKC | -0.01 ± 0.1
LPHTAVCLVCGEAGKEDTVEEEEGKFNLMLMECSICNEIIHPGCLYIKESEGVVNDELPNCWECPKC | 0.042 ± 0.43
LPHTAVCLVCGEAGKEDTVEEEEGKFNLMLMECSICNEIIHPGCLSIKESEGVVNDELPNCWECPKC | 0.206 ± 0.081
LPHTAVCLVCGEAGKEDTVEEEEGKFNLMLMECSICNEIIHPGCLVIKESEGVVNDELPNCWECPKC | -0.058 ± 0.07
LPHTAVCLVCGEAGKEDTVEEEEGKFNLMLMECSICNEIIHPGCLQIKESEGVVNDELPNCWECPKC | 0.195 ± 0.12
LPHTAVCLVCGEAGKEDTVEEEEGKFNLMLMECSICNEIIHPGCLDIKESEGVVNDELPNCWECPKC | 0.224 ± 0.18
LPHTAVCLVCGEAGKEDTVEEEEGKFNLMLMECSICNEIIHPGCLLIKESEGVVNDELPNCWECPKC | 0.007 ± 0.08
LPHTAVCLVCGEAGKEDTVEEEEGKFNLMLMECSICNEIIHPGCLGIKESEGVVNDELPNCWECPKC | 0.205 ± 0.078
LPHTAVCLVCGEAGKEDTVEEEEGKFNLMLMECSICNEIIHPGCLPIKESEGVVNDELPNCWECPKC | 0.077 ± 0.089
LPHTAVCLVCGEAGKEDTVEEEEGKFNLMLMECSICNEIIHPGCLTIKESEGVVNDELPNCWECPKC | 0.211 ± 0.19
LPHTAVCLVCGEAGKEDTVEEEEGKFNLMLMECSICNEIIHPGCLKIRESEGVVNDELPNCWECPKC | -0.168 ± 0.085
LPHTAVCLVCGEAGKEDTVEEEEGKFNLMLMECSICNEIIHPGCLKIFESEGVVNDELPNCWECPKC | -0.078 ± 0.19
LPHTAVCLVCGEAGKEDTVEEEEGKFNLMLMECSICNEIIHPGCLKINESEGVVNDELPNCWECPKC | 0.222 ± 0.19
LPHTAVCLVCGEAGKEDTVEEEEGKFNLMLMECSICNEIIHPGCLKIWESEGVVNDELPNCWECPKC | -0.119 ± 0.092
LPHTAVCLVCGEAGKEDTVEEEEGKFNLMLMECSICNEIIHPGCLKISESEGVVNDELPNCWECPKC | -0.155 ± 0.089
LPHTAVCLVCGEAGKEDTVEEEEGKFNLMLMECSICNEIIHPGCLKIVESEGVVNDELPNCWECPKC | -0.261 ± 0.12
LPHTAVCLVCGEAGKEDTVEEEEGKFNLMLMECSICNEIIHPGCLKICESEGVVNDELPNCWECPKC | -0.179 ± 0.15
LPHTAVCLVCGEAGKEDTVEEEEGKFNLMLMECSICNEIIHPGCLKIQESEGVVNDELPNCWECPKC | 0.108 ± 0.11
LPHTAVCLVCGEAGKEDTVEEEEGKFNLMLMECSICNEIIHPGCLKIYESEGVVNDELPNCWECPKC | 0.011 ± 0.25
LPHTAVCLVCGEAGKEDTVEEEEGKFNLMLMECSICNEIIHPGCLKIEESEGVVNDELPNCWECPKC | 0.152 ± 0.1
LPHTAVCLVCGEAGKEDTVEEEEGKFNLMLMECSICNEIIHPGCLKIGESEGVVNDELPNCWECPKC | -0.056 ± 0.067
LPHTAVCLVCGEAGKEDTVEEEEGKFNLMLMECSICNEIIHPGCLKIMESEGVVNDELPNCWECPKC | 0.157 ± 0.11

Variant | abundance fitness
LPHTAVCLVCGEAGKEDTVEEEEGKFNLMLMECSICNEIIHPGCLKIPESEGVVNDELPNCWECPKC | -0.159 ± 0.19
LPHTAVCLVCGEAGKEDTVEEEEGKFNLMLMECSICNEIIHPGCLKIKISEGVVNDELPNCWECPKC | -0.244 ± 0.19
LPHTAVCLVCGEAGKEDTVEEEEGKFNLMLMECSICNEIIHPGCLKIKCSEGVVNDELPNCWECPKC | -0.039 ± 0.11
LPHTAVCLVCGEAGKEDTVEEEEGKFNLMLMECSICNEIIHPGCLKIKGSEGVVNDELPNCWECPKC | 0.008 ± 0.051
LPHTAVCLVCGEAGKEDTVEEEEGKFNLMLMECSICNEIIHPGCLKIKDSEGVVNDELPNCWECPKC | -0.198 ± 0.21
LPHTAVCLVCGEAGKEDTVEEEEGKFNLMLMECSICNEIIHPGCLKIKASEGVVNDELPNCWECPKC | 0.104 ± 0.082
LPHTAVCLVCGEAGKEDTVEEEEGKFNLMLMECSICNEIIHPGCLKRKESEGVVNDELPNCWECPKC | -0.207 ± 0.067
LPHTAVCLVCGEAGKEDTVEEEEGKFNLMLMECSICNEIIHPGCLKNKESEGVVNDELPNCWECPKC | -0.307 ± 0.29
LPHTAVCLVCGEAGKEDTVEEEEGKFNLMLMECSICNEIIHPGCLKCKESEGVVNDELPNCWECPKC | -0.168 ± 0.11
LPHTAVCLVCGEAGKEDTVEEEEGKFNLMLMECSICNEIIHPGCLKEKESEGVVNDELPNCWECPKC | 0.038 ± 0.11
LPHTAVCLVCGEAGKEDTVEEEEGKFNLMLMECSICNEIIHPGCLKAKESEGVVNDELPNCWECPKC | -0.014 ± 0.11
LPHTAVCLVCGEAGKEDTVEEEEGKFNLMLMECSICNEIIHPGCLKGKESEGVVNDELPNCWECPKC | 0.011 ± 0.087
LPHTAVCLVCGEAGKEDTVEEEEGKFNLMLMECSICNEIIHPGCLKQKESEGVVNDELPNCWECPKC | -0.167 ± 0.18
LPHTAVCLVCGEAGKEDTVEEEEGKFNLMLMECSICNEIIHPGCLKYKESEGVVNDELPNCWECPKC | -0.007 ± 0.22
LPHTAVCLVCGEAGKEDTVEEEEGKFNLMLMECSICNEIIHPGCLKKKESEGVVNDELPNCWECPKC | -0.17 ± 0.13
LPHTAVCLVCGEAGKEDTVEEEEGKFNLMLMECSICNEIIHPGCLKVKESEGVVNDELPNCWECPKC | 0.006 ± 0.068
LPHTAVCLVCGEAGKEDTVEEEEGKFNLMLMECSICNEIIHPGCLKSKESEGVVNDELPNCWECPKC | -0.002 ± 0.076
LPHTAVCLVCGEAGKEDTVEEEEGKFNLMLMECSICNEIIHPGCLKMKESEGVVNDELPNCWECPKC | 0.16 ± 0.097
LPHTAVCLVCGEAGKEDTVEEEEGKFNLMLMECSICNEIIHPGCLKWKESEGVVNDELPNCWECPKC | -0.09 ± 0.083
LPHTAVCLVCGEAGKEDTVEEEEGKFNLMLMECSICNEIIHPGCLKLKESEGVVNDELPNCWECPKC | -0.133 ± 0.072
LPHTAVCLVCGEAGKEDTVEEEEGKFNLMLMECSICNEIIHPGCLKFKESEGVVNDELPNCWECPKC | -0.047 ± 0.19
LPHTAVCLVCGEAGKEDTVEEEEGKFNLMLMECSICNEIIHPGCLKHKESEGVVNDELPNCWECPKC | -0.242 ± 0.28
LPHTAVCLVCGEAGKEDTVEEEEGKFNLMLMECSICNEIIHPGCLKDKESEGVVNDELPNCWECPKC | -0.261 ± 0.24
LPHTAVCLVCGEAGKEDTVEEEEGKFNLMLMECSICNEIIHPGCLKTKESEGVVNDELPNCWECPKC | 0.08 ± 0.11
LPHTAVCLVCGEAGKEDTVEEEEGKFNLMLMECSICNEIIHPGWLKIKESEGVVNDELPNCWECPKC | -0.8 ± 0.16
LPHTAVCLVCGEAGKEDTVEEEEGKFNLMLMECSICNEIIHPGNLKIKESEGVVNDELPNCWECPKC | -0.815 ± 0.46
LPHTAVCLVCGEAGKEDTVEEEEGKFNLMLMECSICNEIIHPGVLKIKESEGVVNDELPNCWECPKC | -0.906 ± 0.15

Variant | abundance fitness
LPHTAVCLVCGEAGKEDTVEEEEGKFNLMLMECSICNEIIHPGYLKIKESEGVVNDELPNCWECPKC | -0.897 ± 0.44
LPHTAVCLVCGEAGKEDTVEEEEGKFNLMLMECSICNEIIHPGLLKIKESEGVVNDELPNCWECPKC | -0.956 ± 0.16
LPHTAVCLVCGEAGKEDTVEEEEGKFNLMLMECSICNEIIHPGSLKIKESEGVVNDELPNCWECPKC | -0.843 ± 0.14
LPHTAVCLVCGEAGKEDTVEEEEGKFNLMLMECSICNEIIHPGRLKIKESEGVVNDELPNCWECPKC | -0.709 ± 0.11
LPHTAVCLVCGEAGKEDTVEEEEGKFNLMLMECSICNEIIHPGALKIKESEGVVNDELPNCWECPKC | -0.779 ± 0.18
LPHTAVCLVCGEAGKEDTVEEEEGKFNLMLMECSICNEIIHPGTLKIKESEGVVNDELPNCWECPKC | -0.982 ± 0.19
LPHTAVCLVCGEAGKEDTVEEEEGKFNLMLMECSICNEIIHPGQLKIKESEGVVNDELPNCWECPKC | -0.79 ± 0.12
LPHTAVCLVCGEAGKEDTVEEEEGKFNLMLMECSICNEIIHPGPLKIKESEGVVNDELPNCWECPKC | -0.722 ± 0.12
LPHTAVCLVCGEAGKEDTVEEEEGKFNLMLMECSICNEIIHPGGLKIKESEGVVNDELPNCWECPKC | -0.764 ± 0.12
LPHTAVCLVCGEAGKEDTVEEEEGKFNLMLMECSICNEIIHPGMLKIKESEGVVNDELPNCWECPKC | -0.735 ± 0.22
LPHTAVCLVCGEAGKEDTVEEEEGKFNLMLMECSICNEIIHPGCKKIKESEGVVNDELPNCWECPKC | -0.402 ± 0.058
LPHTAVCLVCGEAGKEDTVEEEEGKFNLMLMECSICNEIIHPGCPKIKESEGVVNDELPNCWECPKC | -0.515 ± 0.19
LPHTAVCLVCGEAGKEDTVEEEEGKFNLMLMECSICNEIIHPGCQKIKESEGVVNDELPNCWECPKC | 0.069 ± 0.16
LPHTAVCLVCGEAGKEDTVEEEEGKFNLMLMECSICNEIIHPGCSKIKESEGVVNDELPNCWECPKC | 0.081 ± 0.097
LPHTAVCLVCGEAGKEDTVEEEEGKFNLMLMECSICNEIIHPGCFKIKESEGVVNDELPNCWECPKC | -0.286 ± 0.18
LPHTAVCLVCGEAGKEDTVEEEEGKFNLMLMECSICNEIIHPGCVKIKESEGVVNDELPNCWECPKC | -0.092 ± 0.074
LPHTAVCLVCGEAGKEDTVEEEEGKFNLMLMECSICNEIIHPGCWKIKESEGVVNDELPNCWECPKC | -0.493 ± 0.15
LPHTAVCLVCGEAGKEDTVEEEEGKFNLMLMECSICNEIIHPGCTKIKESEGVVNDELPNCWECPKC | -0.085 ± 0.1
LPHTAVCLVCGEAGKEDTVEEEEGKFNLMLMECSICNEIIHPGCAKIKESEGVVNDELPNCWECPKC | -0.224 ± 0.2
LPHTAVCLVCGEAGKEDTVEEEEGKFNLMLMECSICNEIIHPGCHKIKESEGVVNDELPNCWECPKC | -0.188 ± 0.18
LPHTAVCLVCGEAGKEDTVEEEEGKFNLMLMECSICNEIIHPGCRKIKESEGVVNDELPNCWECPKC | -0.002 ± 0.056
LPHTAVCLVCGEAGKEDTVEEEEGKFNLMLMECSICNEIIHPGCGKIKESEGVVNDELPNCWECPKC | -0.114 ± 0.081
LPHTAVCLVCGEAGKEDTVEEEEGKFNLMLMECSICNEIIHPGCDKIKESEGVVNDELPNCWECPKC | -0.483 ± 0.17
LPHTAVCLVCGEAGKEDTVEEEEGKFNLMLMECSICNEIIHPGCIKIKESEGVVNDELPNCWECPKC | -0.434 ± 0.41
LPHTAVCLVCGEAGKEDTVEEEEGKFNLMLMECSICNEIIHPGCMKIKESEGVVNDELPNCWECPKC | 0.032 ± 0.12
LPHTAVCLVCGEAGKEDTVEEEEGKFNLMLMECSICNEIIHPGCEKIKESEGVVNDELPNCWECPKC | -0.547 ± 0.2
